Laboratory results taken from IntAct's records for PubMed 35512704.

B1: Speckle-type POZ protein (Homo sapiens), O43791 (parent)
chain: MSRVPSPPPPAEMSSGPVAESWCYTQIKVVKFSYMWTINNFSFCREEMGEVIKSSTFSSGANDKLKWCLRVNPKGLDEESKDYLSLYLLLVSCPKSEVRAKFKFSILNAKGEETKAMESQRAYRFVQGKDWGFKKFIRRDFLLDEANGLLPDDKLTLFCEVSVVQDSVNISGQNTMNMVKVPECRLADELGGLWENSRFTDCCLCVAGQEFQAHKAILAARSPVFSAMFEHEMEESKKNRVEINDVEPEVFKEMMCFIYTGKAPNLDKMADDLLAAADKYALERLKVMCEDALCSNLSVENAAEILILADLHSADQLKTQAVDFINYHASDVLETSGWKSMVVSHPHLVAEAYRSLASAQCPFLGPPRKRLKQS
partner: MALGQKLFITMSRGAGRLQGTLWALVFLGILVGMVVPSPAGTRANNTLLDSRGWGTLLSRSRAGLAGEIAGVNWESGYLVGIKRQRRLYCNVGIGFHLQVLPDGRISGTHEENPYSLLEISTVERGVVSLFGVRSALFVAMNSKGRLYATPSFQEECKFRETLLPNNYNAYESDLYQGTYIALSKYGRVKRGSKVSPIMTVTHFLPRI
B2: Speckle-type POZ protein (Homo sapiens), O43791 (parent)
chain: B1 chain
partner: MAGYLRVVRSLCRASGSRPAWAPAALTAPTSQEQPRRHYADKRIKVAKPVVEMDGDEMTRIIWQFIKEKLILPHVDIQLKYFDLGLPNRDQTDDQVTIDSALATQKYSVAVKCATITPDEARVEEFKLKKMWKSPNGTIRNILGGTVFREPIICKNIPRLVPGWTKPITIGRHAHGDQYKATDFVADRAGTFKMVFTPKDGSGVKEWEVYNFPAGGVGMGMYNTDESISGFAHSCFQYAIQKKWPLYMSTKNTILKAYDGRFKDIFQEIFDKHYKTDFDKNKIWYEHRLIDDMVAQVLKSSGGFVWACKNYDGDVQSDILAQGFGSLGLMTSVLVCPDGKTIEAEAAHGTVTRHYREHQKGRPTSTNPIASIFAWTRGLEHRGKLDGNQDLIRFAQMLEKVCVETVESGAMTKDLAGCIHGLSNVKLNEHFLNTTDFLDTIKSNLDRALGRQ
B3: Speckle-type POZ protein (Homo sapiens), O43791 (parent)
chain: B1 chain
partner: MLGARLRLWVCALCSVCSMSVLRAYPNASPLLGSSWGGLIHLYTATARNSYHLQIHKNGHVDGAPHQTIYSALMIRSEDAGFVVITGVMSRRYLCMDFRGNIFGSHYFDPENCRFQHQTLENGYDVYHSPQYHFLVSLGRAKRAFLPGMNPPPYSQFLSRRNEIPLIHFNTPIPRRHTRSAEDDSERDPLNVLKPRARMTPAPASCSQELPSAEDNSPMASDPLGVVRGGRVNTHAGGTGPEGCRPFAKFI
B4: Speckle-type POZ protein (Homo sapiens), O43791 (parent)
chain: B1 chain
partner: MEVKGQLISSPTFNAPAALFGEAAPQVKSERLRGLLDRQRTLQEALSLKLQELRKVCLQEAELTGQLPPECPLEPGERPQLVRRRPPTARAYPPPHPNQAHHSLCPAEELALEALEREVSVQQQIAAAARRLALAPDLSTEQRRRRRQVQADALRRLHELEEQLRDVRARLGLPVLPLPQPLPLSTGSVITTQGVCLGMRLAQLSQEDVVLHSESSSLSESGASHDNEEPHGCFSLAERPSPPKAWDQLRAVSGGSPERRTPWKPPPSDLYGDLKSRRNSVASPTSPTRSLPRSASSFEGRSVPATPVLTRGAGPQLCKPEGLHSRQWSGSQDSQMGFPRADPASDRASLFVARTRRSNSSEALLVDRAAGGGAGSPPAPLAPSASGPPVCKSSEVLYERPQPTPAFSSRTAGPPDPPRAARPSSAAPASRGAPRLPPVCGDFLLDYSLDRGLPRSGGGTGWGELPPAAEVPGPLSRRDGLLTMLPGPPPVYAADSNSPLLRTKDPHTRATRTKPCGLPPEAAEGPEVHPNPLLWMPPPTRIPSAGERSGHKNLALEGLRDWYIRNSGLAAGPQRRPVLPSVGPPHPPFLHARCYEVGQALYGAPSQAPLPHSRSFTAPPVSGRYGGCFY
B5: Speckle-type POZ protein (Homo sapiens), O43791 (parent)
chain: B1 chain
partner: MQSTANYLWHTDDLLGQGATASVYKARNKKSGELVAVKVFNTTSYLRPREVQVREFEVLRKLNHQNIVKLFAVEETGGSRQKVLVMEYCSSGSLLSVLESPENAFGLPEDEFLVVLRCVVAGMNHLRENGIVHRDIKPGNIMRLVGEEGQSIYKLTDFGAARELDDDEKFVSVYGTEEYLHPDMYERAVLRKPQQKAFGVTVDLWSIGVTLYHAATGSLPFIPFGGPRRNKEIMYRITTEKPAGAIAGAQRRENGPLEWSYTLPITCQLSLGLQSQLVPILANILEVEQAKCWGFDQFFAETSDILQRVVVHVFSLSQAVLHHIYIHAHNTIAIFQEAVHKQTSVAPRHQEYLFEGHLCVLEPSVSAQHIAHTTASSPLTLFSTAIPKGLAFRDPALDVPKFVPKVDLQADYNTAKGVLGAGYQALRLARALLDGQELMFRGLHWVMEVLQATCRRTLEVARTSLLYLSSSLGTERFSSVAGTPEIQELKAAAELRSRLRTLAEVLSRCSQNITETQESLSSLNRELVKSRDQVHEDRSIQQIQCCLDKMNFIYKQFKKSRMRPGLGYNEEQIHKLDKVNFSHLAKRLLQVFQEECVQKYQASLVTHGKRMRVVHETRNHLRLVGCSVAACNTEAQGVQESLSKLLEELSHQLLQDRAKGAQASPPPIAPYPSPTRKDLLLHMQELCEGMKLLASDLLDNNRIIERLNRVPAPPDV
B6: Speckle-type POZ protein (Homo sapiens), O43791 (parent)
chain: B1 chain
partner: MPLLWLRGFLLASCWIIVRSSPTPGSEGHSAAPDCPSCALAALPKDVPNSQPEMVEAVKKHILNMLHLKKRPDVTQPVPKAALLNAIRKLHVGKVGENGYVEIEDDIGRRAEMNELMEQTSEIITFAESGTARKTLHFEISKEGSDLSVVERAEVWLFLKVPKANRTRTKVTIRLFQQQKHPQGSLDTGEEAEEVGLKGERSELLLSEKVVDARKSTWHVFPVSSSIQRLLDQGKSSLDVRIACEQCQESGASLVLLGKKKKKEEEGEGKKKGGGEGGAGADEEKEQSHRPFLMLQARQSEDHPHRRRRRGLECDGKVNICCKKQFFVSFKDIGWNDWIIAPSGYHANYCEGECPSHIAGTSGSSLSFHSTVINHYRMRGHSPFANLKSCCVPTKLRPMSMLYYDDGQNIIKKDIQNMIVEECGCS
B7: Speckle-type POZ protein (Homo sapiens), O43791 (parent)
chain: B1 chain
partner: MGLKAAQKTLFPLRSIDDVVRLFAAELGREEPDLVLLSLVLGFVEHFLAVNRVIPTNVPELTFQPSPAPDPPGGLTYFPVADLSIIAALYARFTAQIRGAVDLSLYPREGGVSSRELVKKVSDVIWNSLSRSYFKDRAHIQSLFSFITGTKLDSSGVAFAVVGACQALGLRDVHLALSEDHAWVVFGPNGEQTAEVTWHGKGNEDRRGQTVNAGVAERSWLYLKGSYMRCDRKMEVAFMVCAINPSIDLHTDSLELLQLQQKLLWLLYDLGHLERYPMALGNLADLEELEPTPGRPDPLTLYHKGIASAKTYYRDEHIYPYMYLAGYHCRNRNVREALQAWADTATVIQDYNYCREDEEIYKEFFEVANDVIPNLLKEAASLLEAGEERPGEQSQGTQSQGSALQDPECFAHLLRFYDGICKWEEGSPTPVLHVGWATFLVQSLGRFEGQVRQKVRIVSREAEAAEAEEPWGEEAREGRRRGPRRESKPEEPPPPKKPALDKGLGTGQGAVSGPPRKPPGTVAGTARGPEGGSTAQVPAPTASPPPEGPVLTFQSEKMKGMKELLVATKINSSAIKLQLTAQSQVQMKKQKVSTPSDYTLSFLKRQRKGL

Variants of: B1
Settings: with fgf6_human FGF6, P10767

effect of a mutation on the interaction | Variant
with no effect | F133V

Variants of: B2
Settings: with idhp_human IDH2, P48735

effect of a mutation on the interaction | Variant
with no effect | F102C

Variants of: B2
Settings: with idhp_human IDH2, P48735
Remark: another data set of the same source

effect of a mutation on the interaction | Variant
with no effect | F133V

Variants of: B2
Settings: with idhp_human IDH2, P48735
Remark: another data set of the same source

effect of a mutation on the interaction | Variant
with no effect | F133L

Variants of: B2
Settings: with idhp_human IDH2, P48735
Remark: another data set of the same source

effect of a mutation on the interaction | Variant
with no effect | Y87C

Variants of: B3
Settings: with fgf23_human FGF23, Q9GZV9

effect of a mutation on the interaction | Variant
with no effect | Y87C

Variants of: B3
Settings: with fgf23_human FGF23, Q9GZV9
Remark: another data set of the same source

effect of a mutation on the interaction | Variant
with no effect | F102C

Variants of: B3
Settings: with fgf23_human FGF23, Q9GZV9
Remark: another data set of the same source

effect of a mutation on the interaction | Variant
with no effect | F133V

Variants of: B3
Settings: with fgf23_human FGF23, Q9GZV9
Remark: another data set of the same source

effect of a mutation on the interaction | Variant
with no effect | F133L

Variants of: B4
Settings: with cc120_human CCDC120, Q96HB5

effect of a mutation on the interaction | Variant
with no effect | Y87C

Variants of: B4
Settings: with cc120_human CCDC120, Q96HB5
Remark: another data set of the same source

effect of a mutation on the interaction | Variant
with no effect | F133V

Variants of: B4
Settings: with cc120_human CCDC120, Q96HB5
Remark: another data set of the same source

effect of a mutation on the interaction | Variant
with no effect | F133L

Variants of: B4
Settings: with cc120_human CCDC120, Q96HB5
Remark: another data set of the same source

effect of a mutation on the interaction | Variant
with no effect | F102C

Variants of: B5
Settings: with ikke_human IKBKE

effect of a mutation on the interaction | Variant
with no effect | F133L

Variants of: B5
Settings: with ikke_human IKBKE
Remark: another data set of the same source

effect of a mutation on the interaction | Variant
with no effect | F133V

Variants of: B5
Settings: with ikke_human IKBKE
Remark: another data set of the same source

effect of a mutation on the interaction | Variant
with no effect | F102C

Variants of: B5
Settings: with ikke_human IKBKE
Remark: another data set of the same source

effect of a mutation on the interaction | Variant
with no effect | Y87C

Variants of: B6
Settings: with inhba_human INHBA

effect of a mutation on the interaction | Variant
with no effect | Y87C

Variants of: B6
Settings: with inhba_human INHBA
Remark: another data set of the same source

effect of a mutation on the interaction | Variant
with no effect | F133L

Variants of: B6
Settings: with inhba_human INHBA
Remark: another data set of the same source

effect of a mutation on the interaction | Variant
with no effect | F133V

Variants of: B6
Settings: with inhba_human INHBA
Remark: another data set of the same source

effect of a mutation on the interaction | Variant
with no effect | F102C

Variants of: B7
Settings: with men1_human MEN1, O00255

effect of a mutation on the interaction | Variant
with no effect | F133V

Variants of: B7
Settings: with men1_human MEN1, O00255
Remark: another data set of the same source

effect of a mutation on the interaction | Variant
with no effect | F133L
